# Assay results: publication PMC4935545 (Molecular cell, 2016)
# B1: S. pombe Mis18 (recombinant) (natural protein, UniProt Q9P802 1-194, looked up)
# chain: MSQTETSHSGYIDFKKESQPSVFQCKKCFQIVGDSNAWVISHREYLSFTLSDAVENSVRVEDTFKRSDDGLCVYSELSCTRCNEVIGKVYNSTPIYLDDIRDMYTFSMDKLQAYQLGNKTVNPEGLTRYQVDLEMREDIIKLKSFCLSLYEKFELHDETLRSVKETISSLKKPKIEGKEGKKEKARTYSKRTRK
# How the values were obtained:
# [1] = molecular target: mCLI-Mis18α (human) (UniProt Q9NYP9)
# [2] = molecular target: His-tagged Mis18α (human) (UniProt Q9NYP9); assay: SEC + other: glycerol gradient sedimentation
# [3] = molecular target: MBP-HJURP^R1 (human) (UniProt Q8NCD3); assay: SEC + other: glycerol gradient sedimentation
# Chain of MBP-HJURP^R1 (human) (Q8NCD3 348-555): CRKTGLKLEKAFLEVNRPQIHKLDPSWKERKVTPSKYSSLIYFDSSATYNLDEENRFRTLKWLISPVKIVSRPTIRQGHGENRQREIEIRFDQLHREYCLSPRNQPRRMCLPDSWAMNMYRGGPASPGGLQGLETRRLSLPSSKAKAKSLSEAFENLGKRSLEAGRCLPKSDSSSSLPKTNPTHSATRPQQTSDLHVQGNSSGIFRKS
# [4] = molecular target: Strep-tagged Mis18β (human) (UniProt O43482); assay: SEC + other: glycerol gradient sedimentation
# Chain of Strep-tagged Mis18β (human) (O43482 whole entry): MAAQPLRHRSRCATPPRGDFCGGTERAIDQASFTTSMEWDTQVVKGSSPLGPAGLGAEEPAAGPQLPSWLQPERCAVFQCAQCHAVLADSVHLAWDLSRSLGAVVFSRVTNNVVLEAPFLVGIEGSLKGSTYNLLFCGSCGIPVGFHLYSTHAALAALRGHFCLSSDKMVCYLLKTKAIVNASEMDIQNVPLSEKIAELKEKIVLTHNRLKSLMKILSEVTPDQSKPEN
# [5] = molecular target: MBP-HJURP^R1 (human) (UniProt Q8NCD3); assay: pull-down
# [6] = molecular target: the molecule itself; assay: SEC + other: glycerol gradient sedimentation
# Chain of mCLI-Mis18α (human) (Q9NYP9 whole entry): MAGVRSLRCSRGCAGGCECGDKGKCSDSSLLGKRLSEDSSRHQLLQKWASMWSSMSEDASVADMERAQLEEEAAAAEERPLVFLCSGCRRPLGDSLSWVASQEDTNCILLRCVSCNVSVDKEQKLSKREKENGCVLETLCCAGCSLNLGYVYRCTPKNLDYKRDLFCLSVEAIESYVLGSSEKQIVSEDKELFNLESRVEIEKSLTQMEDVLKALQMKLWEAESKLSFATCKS
Molecule,stoichiometry N [3],stoichiometry N [4],also measured
GFP-Mis18β (from UniProt O43482 1-229) (natural protein),–,–,percent of transfected cells with recruitment to the array [1]: 100%
His-tagged Mis18α (from UniProt Q9NYP9 1-233) (natural protein),1,1,stoichiometry N [2]: 2
Mis18α-β heterotetramer (preformed from recombinant Mis18α and Mis18β) (from UniProt Q9NYP9 1-233; O43482 1-229) (complex),–,–,fold binding against Mis18α or Mis18β alone [5]: 2 fold
Strep-tagged Mis18β (from UniProt O43482 1-229) (natural protein),1,2,–
B1,–,–,stoichiometry N [6]: 4
